Source: patent US20260116996A1 (REGENTS OF THE UNIVERSITY OF MINNESOTA, published 2026)

Experiments:
[1] = biological target: T1, human serpinB3 (human, UniProt P29508 1-390); assay: ELISA cross-reactivity test / Luminex bead assay (FIG. 25)
T1 construct: Luminex antigen captured from a 293 cell lysate; not shown: V5-His tag of the pcDNA3.1 Directional V5-His-TOPO vector
T1 sequence (looked up): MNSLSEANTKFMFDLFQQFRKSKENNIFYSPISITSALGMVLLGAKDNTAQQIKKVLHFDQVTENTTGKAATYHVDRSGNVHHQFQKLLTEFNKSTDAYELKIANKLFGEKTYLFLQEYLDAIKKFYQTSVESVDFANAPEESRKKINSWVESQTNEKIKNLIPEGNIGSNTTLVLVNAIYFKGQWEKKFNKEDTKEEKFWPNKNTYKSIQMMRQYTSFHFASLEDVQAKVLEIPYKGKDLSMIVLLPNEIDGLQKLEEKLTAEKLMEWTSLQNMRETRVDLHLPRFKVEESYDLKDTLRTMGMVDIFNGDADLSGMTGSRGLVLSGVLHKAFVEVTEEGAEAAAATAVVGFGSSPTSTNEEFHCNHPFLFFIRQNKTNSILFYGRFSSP
Procedure: Three recombinant human anti-serpinB13 antibodies were examined in the Luminex-based assay for binding to other clade B serpins, in order as indicated. The final concentration of each antibody was 1.0 μg/mL. The data are expressed as immunofluorescence intensity measured for binding to individual human serpin antigens after subtracting the background. The latter was determined as the average antibody binding to Luminex beads coated with Gfp and Scgn control antigens. Similar data were obtained for antigen binding of Fab fragments of these antibodies (data not shown).
(§1) Luminex assay. Luminex-based technology was used to measure serpinB13 AA in human samples. Initially, the Luminex beads were precoated with serpinB13, Gfp and Scgn, using precleared lysates of 293 cells that had been transfected with individual cDNAs. Biotinylated mouse anti-human K and 2 chain mAbs (BD Biosciences) (dilution 1:300) and streptavidin (Invitrogen) (dilution 1:200) were used as secondary reagents to measure human serum binding activity to individual antigens. The data were expressed as fluorescence intensity (F.I.) due to serum binding activity in the presence of beads precoated with serpinB13 and after subtracting the average F.I. due to serum binding activity in the presence of beads precoated with control proteins, Gfp and Scgn (e.g. F.I.^B13-[F.I.^GFP+F.I.^Segn]/2). The samples were evaluated based on the level of F.I. and the degree of inhibition of binding to serpin-B13 coated beads with soluble serpinB13 (2.5 μg/mL), compared with the bovine serum albumin (BSA). […] All samples were run blind on three independent occasions. Subjects with serum samples that produced a positive results three times were considered positive. Subjects with serum samples that produced a negative result on at least one occasion were considered negative.
To determine whether anti-serpin activity is specific, binding of three human recombinant antibodies to serpinB13 was examined for potential cross-reactivity with other clade B serpins.

[2] = biological target: T2, human serpinB5 (human, UniProt P36952 1-375); assay: Luminex bead assay, beads coated with human serpinB5, background (Gfp and Scgn beads) subtracted
T2 construct: Luminex antigen captured from a 293 cell lysate; not shown: V5-His tag of the pcDNA3.1 Directional V5-His-TOPO vector
T2 sequence (looked up): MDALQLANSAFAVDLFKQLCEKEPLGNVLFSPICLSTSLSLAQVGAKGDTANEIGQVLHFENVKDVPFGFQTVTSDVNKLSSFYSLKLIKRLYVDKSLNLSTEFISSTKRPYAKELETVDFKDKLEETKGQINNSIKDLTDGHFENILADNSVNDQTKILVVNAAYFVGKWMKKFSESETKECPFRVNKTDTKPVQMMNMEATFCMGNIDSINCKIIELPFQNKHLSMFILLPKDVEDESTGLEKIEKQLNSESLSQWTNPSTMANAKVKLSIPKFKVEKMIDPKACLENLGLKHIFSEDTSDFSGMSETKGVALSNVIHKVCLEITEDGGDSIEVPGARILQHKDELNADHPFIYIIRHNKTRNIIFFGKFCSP
Procedure: (§2) The latter was determined as the average antibody binding to Luminex beads coated with Gfp and Scgn control antigens. Similar data were obtained for antigen binding of Fab fragments of these antibodies (data not shown).
as §1
(§3) To determine whether anti-serpin activity is specific, binding of three human recombinant antibodies to serpinB13 was examined for potential cross-reactivity with other clade B serpins. Binding to the beads conjugated with Gfp and Scgn was used to subtract the background and the assay was developed using the same reagents as those described above for measuring serpinB13 AA in serum samples.

[3] = biological target: T3, human serpinB9 (human, UniProt P50453 1-376); assay: Luminex bead assay, beads coated with human serpinB9, background (Gfp and Scgn beads) subtracted
T3 construct: Luminex antigen captured from a 293 cell lysate; not shown: V5-His tag of the pcDNA3.1 Directional V5-His-TOPO vector
T3 sequence (looked up): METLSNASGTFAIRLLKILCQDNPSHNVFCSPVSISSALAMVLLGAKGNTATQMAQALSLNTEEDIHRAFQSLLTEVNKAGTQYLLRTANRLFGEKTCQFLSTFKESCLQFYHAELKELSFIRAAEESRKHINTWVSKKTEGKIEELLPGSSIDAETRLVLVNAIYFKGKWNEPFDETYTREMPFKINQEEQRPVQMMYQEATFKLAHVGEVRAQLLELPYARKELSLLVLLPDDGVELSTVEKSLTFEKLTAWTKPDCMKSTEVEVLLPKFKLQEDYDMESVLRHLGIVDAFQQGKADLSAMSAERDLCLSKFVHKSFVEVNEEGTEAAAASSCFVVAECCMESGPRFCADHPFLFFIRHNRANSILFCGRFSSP
Procedure: as §2, §1, §3

[4] = biological target: T4, recombinant human serpinB13 (human, UniProt Q9UIV8 1-391); assay: Luminex bead assay, beads coated with human serpinB13, antibody at 1.0 µg/mL, background (mean of Gfp and Scgn beads) subtracted
T4 construct: The baculovirus-made protein (GenScript) was used for panning, ELISA and the cathepsin L assay; In the Luminex assay human serpinB13 was V5-His tagged and came from 293 cell lysates; also called rhB13
T4 sequence (looked up): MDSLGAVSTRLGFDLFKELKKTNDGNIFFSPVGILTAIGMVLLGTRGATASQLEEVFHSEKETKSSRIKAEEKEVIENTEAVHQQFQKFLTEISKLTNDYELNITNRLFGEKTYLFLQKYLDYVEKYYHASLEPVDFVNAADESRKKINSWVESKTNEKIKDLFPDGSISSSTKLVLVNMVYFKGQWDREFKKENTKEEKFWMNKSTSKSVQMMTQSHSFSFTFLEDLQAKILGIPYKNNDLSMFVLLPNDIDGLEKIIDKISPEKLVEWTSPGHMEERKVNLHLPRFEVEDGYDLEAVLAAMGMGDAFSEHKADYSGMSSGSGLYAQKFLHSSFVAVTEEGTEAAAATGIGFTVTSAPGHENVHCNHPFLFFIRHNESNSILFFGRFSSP
Procedure: as §2, §1, §3

Binder | binding result [1] | binding result [2] | binding result [3] | binding result [4]
recombinant fully human anti-serpinB13 antibody Clone 3 (antibody, human IgG1, kappa, V domains shown, also called mAb3; CLONE3-H(m1) / CLONE3-L(m1)) VH: QVQLQQWGAGLLKPSETLSLTCAVYGGSFSGYYWSWIRQPPGKGLEWIGEINHSGSTNYNPSLKSRVTISVDTSKNQFSLKLSSVTAADTAVYYCARRYCSGGSCYLVGTGSELDYWGQGTLVTVSS VL: DIQMTQSPSTLSASVGDRVTITCRASQSISSWLAWYQQKPGKAPKLLIYKASSLEIGVPSRFSGSGYGTEFTLTISSLQPDDFATYYCLQYSTHSTFGQGTRVEIKR | no binding (tested: 1.0 µg/mL) | no binding (tested: 1.0 µg/mL) | no binding (tested: 1.0 µg/mL) | binds
recombinant fully human anti-serpinB13 antibody Clone 2 (antibody, human IgG1, kappa, V domains shown, also called mAb2; CLONE2-H(m1) / CLONE2-L(m1)) VH: QMQLVQSGGGVVRPGGSLRLSCAASGFTFDDYGMSWVRQAPGKGLEWVSGINWNGGSTGYADSVKGRFTISRDNAKNSLYLQMNSLRAEDTALYYCARESSMTTVTTYLLREVGVGLDFDYWGQGTLVTVSS VL: ETTLTQSPGTLSLSPGERATLSCRASQTVSGSYLAWYQQKPGQPPRLLIYGASSRATGIPDRFSGSGSGTDFTLTISRLEPEDFAVYYCQDYGSSRTFGQGTKVELKR | no binding (tested: 1.0 µg/mL) | no binding (tested: 1.0 µg/mL) | no binding (tested: 1.0 µg/mL) | binds
recombinant fully human anti-serpinB13 antibody Clone 1 (antibody, human IgG1, kappa, V domains shown, also called mAb1; mAbs1) VH: QVQLQESGGGVVQPGRSLRLSCAASGFTFSSYGMHWVRQAPGKGLEWVAVISYDGSNKYYADSVKGRFTISRDNSKNTLYLQMNSLRAEDTAVYYCARDLGAVIAVAGTSTPYNWFDPWGQGTLVTVSS VL: DVVMTQSPLSLPVTPGEPASISCRSRQSLLHSNGHNYLGWYLQKPGQSPQLLIYLASIRASGIPDRFSGSGSGTDFTLKISRVEAEDVGVYYCMQALQTPYTFGQGTKLEIKR | no binding (tested: 1.0 µg/mL) | no binding (tested: 1.0 µg/mL) | no binding (tested: 1.0 µg/mL) | binds
